From article PMC9813592, “A genetic screen in Arabidopsis reveals the identical roles for RBP45d and PRP39a in 5’ cryptic splice site selection” come the findings set out here.

Data set [1] addresses T1, RBP45d (His-RBP45d) (Arabidopsis thaliana, UniProt Q8VXZ9 1-425).
T1 sequence: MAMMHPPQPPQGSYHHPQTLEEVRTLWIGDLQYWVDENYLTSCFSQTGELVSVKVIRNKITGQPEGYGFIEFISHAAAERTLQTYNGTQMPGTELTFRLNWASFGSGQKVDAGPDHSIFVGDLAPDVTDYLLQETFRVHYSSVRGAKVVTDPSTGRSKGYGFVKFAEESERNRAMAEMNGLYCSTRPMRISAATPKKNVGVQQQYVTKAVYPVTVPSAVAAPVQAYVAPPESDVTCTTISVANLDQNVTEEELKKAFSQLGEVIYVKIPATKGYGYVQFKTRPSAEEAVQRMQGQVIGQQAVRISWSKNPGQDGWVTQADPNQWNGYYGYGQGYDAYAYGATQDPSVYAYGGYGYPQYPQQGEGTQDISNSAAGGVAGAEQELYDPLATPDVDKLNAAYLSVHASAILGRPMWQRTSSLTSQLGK
The data set is described as follows: competition; unlabeled vs Cy5-SOT5-IN7; REMSA; buffer, salt, pH and temperature not given in the material; unlabeled competitor up to at least 6 uM. Particulars: protein: recombinant; tags: His (pET51b); single strand.

The target in data set [2] is T1, RBP45d (His-RBP45d). The data set is described as follows: EMSA; dose-dependent; REMSA; buffer, salt, pH and temperature not given in the material; unlabeled competitor up to at least 6 uM. As to conditions: protein: recombinant; tags: His (pET51b); label: 5'-Cy5; single strand. On the technique in general: A gel shift assay detects complexes by their altered migration in electrophoresis.

On to CUCAAUAUGGUAAAUUUUGUAAAUC (ssRNA) [SOT5-IN7-M1-NL], for which the binding result in data set [1] is “binds”.
With CUCAAUAUGCCCGGCCGGGUAAAUC (ssRNA) [SOT5-IN7-M4-NL], in data set [1], the binding result was “no binding”.
Same read-out and setting: next, CUCAAUAUGGCAAAUUUUGUAAAUC (ssRNA) [SOT5-IN7-M2-NL]: “binds”.
Take CUCAAUAUGAUAAAUUUUGUAAAUC (ssRNA) [SOT5-IN7-NL]: the binding result in data set [1] is reported as “binds”.
Consider CUCAAUAUGAUAAAUUUUGUAAAUC (ssRNA) [Cy5-SOT5-IN7], for which, in data set [2], the binding result is reported as “binds”.
